We go through 15 molecules from US20250145729A1 (DENALI THERAPEUTICS, published 2025).

Test [1] has as its target T1, circularly permuted human TfR apical domain (human).
T1 construct: TfR residues 326-379 stand N-terminal to 194-296, loop 297-325 deleted; also called huTfR Apical Domain
T1 chain: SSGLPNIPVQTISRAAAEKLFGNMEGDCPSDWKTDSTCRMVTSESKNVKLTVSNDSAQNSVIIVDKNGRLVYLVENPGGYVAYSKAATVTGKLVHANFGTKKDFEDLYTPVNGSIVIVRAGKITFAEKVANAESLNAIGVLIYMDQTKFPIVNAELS
As to the kind of experiment: SPR, supernatant, anti-Fab capture. The procedure: (§1) Clones were expressed in HEK293 cells. Supernatants were captured for SPR by GE Healthcare anti-human Fab capture kit and the affinity to human and cyno TfR apical domain was measured (Table 30). The clones in Table 30 were bivalent and each TfR-binding Fc polypeptide also contained P329G and LALA mutations.
On the technique in general: In SPR one partner is held on a chip, and binding of the other changes the refractive index at the surface.

Test [2] concerns the target T2, circularly permuted cyno TfR apical domain (cynomolgus monkey).
T2 construct: same design as the human construct; also called cyTfR Apical Domain; cynomolgus TfR apical domain
T2 chain: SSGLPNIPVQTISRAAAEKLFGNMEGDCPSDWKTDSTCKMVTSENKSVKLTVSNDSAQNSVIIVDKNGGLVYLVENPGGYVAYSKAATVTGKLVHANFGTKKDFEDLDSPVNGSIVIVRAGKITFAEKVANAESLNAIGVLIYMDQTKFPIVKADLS
As to the kind of experiment: SPR, supernatant, anti-Fab capture. How it is done:
as §1

In another test the target is T3, human CD98hc (human, UniProt P08195 109-529).
T3 construct: also called huCD98hc; CD98 heavy chain
T3 sequence: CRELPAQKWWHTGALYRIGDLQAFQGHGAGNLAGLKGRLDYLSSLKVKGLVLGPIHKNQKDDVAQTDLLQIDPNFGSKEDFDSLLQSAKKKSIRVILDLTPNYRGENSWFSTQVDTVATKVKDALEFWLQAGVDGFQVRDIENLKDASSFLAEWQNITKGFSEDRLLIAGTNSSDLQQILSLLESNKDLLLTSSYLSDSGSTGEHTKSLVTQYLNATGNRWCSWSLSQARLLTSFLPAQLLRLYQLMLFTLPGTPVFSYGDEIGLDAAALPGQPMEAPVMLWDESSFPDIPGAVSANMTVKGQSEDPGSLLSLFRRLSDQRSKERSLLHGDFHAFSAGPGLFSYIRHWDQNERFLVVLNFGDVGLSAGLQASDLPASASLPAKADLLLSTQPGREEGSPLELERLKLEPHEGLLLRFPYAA
As to the kind of experiment: SPR (Biacore). In a few lines: (§2)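 Surface plasmon resonance on a Biacore instrument was used to measure the binding affinity (Kd) of engineered Fc polypeptides for CD98hc. Each clone was cloned, expressed and purified as an Fc-Fab fusion bearing anti-BACE1 Fabs. Testing used either a bivalent format or a monovalent knob/hole format in which only the knob chain carried the CD98hc-binding site.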

The next test deals with T4, cyno CD98hc (cynomolgus monkey).
T4 construct: also called cynomolgus CD98hc; cyCD98hc
As to the kind of experiment: SPR (Biacore). In a few lines:
as §2

The term Kd denotes a measure of binding affinity in units of concentration. Low values mean higher affinity, high ones lower affinity.

B1: 42.8.214 (Fc fusion)
chain: APEAAGGPSVFLFPPKPKDTLMISRTPEVTCVVVDVSHEDPEVKFNWYVDGVEVHNAKTKPREEQYNSTYRVVSVLTVLHQDWLNGKEYKCKVSNKALGAPIEKTISKAKGQPREPQVYTLPPSRDELTKNQVSLTCLVKGFYPSDIAVEWFYEDSKLNNYKTTPPVLDSDGSFFLYSKLTVDKSRWQQGNLFACEVMHEALHNHYTYKLLSLSPGK
notes: bivalent; P329G+LALA
For B1, the Kd came out at 427 nM in test [1] and 6090 nM in test [2].

B2: 42.8.215 (Fc fusion)
chain: APEAAGGPSVFLFPPKPKDTLMISRTPEVTCVVVDVSHEDPEVKFNWYVDGVEVHNAKTKPREEQYNSTYRVVSVLTVLHQDWLNGKEYKCKVSNKALGAPIEKTISKAKGQPREPQVYTLPPSRDELTKNQVSLTCLVKGFYPSDIAVEWFYEDSKLTNYKTTPPVLDSDGSFFLYSKLTVDKSRWQQGNLFACEVMHEALHNHYTYKLLSLSPGK
notes: bivalent; P329G+LALA
On to B2, for which the Kd in test [1] came to 293 nM; in test [2] it was 4940 nM.

B3: LLB2-1 (Fc fusion)
chain: APELLGGPSVFLFPPKPKDTLMISRTPEVTCVVVDVSHEDPEVKFNWYVDGVEVHNAKTKPREEQYNSTYRVVSVLTVLHQDWLNGKEYKCKVSNKALPAPIEKTISKAKGQPREPQVYTLPPSRDELTKNQVSLTCLVKGFYPSDIAVLWNSRFSLENNYKTTPPVLDSDGSFFLYSKLTVDKSRWQQGNIFACNVLHEALHNHYTFKNLSLSPGK
notes: Fc part only
With B3, the Kd stood at 950 nM with human CD98hc and 4300 nM with cyno CD98hc.

B4: LLB2-2 (Fc fusion)
chain: APELLGGPSVFLFPPKPKDTLMISRTPEVTCVVVDVSHEDPEVKFNWYVDGVEVHNAKTKPREEQYNSTYRVVSVLTVLHQDWLNGKEYKCKVSNKALPAPIEKTISKAKGQPREPQVYTLPPSRDELTKNQVSLTCLVKGFYPSDIAVIWNSRFSLENNYKTTPPVLDSDGSFFLYSKLTVDKSRWQQGNIFACNVLHEALHNHYTFKNLSLSPGK
notes: Fc part only
With B4, in the test with human CD98hc, binding was characterised by a dissociation constant (Kd) of 1300 nM. This counts as single-digit micromolar.

B5: LLB2-3 (Fc fusion)
chain: APELLGGPSVFLFPPKPKDTLMISRTPEVTCVVVDVSHEDPEVKFNWYVDGVEVHNAKTKPREEQYNSTYRVVSVLTVLHQDWLNGKEYKCKVSNKALPAPIEKTISKAKGQPREPQVYTLPPSRDELTKNQVSLTCLVKGFYPSDIAVMWNSRFSLENNYKTTPPVLDSDGSFFLYSKLTVDKSRWQQGNIFACNVLHEALHNHYTFKNLSLSPGK
notes: Fc part only
In turn, B5 displayed a dissociation constant (Kd) with human CD98hc of 1200 nM. This Kd and that of the molecule before are within 1.5-fold of each other.

B6: LLB2-7 (Fc fusion)
chain: APELLGGPSVFLFPPKPKDTLMISRTPEVTCVVVDVSHEDPEVKFNWYVDGVEVHNAKTKPREEQYNSTYRVVSVLTVLHQDWLNGKEYKCKVSNKALPAPIEKTISKAKGQPREPQVYTLPPSRDELTKNQVSLTCLVKGFYPSDIAVLWNSRYSLENNYKTTPPVLDSDGSFFLYSKLTVDKSRWQQGNIFACNVLHEALHNHYTFKNLSLSPGK
notes: Fc part only
Molecule B6 had a Kd with human CD98hc of 3600 nM.

B7: LLB2-34 (Fc fusion)
chain: APELLGGPSVFLFPPKPKDTLMISRTPEVTCVVVDVSHEDPEVKFNWYVDGVEVHNAKTKPREEQYNSTYRVVSVLTVLHQDWLNGKEYKCKVSNKALPAPIEKTISKAKGQPREPQVYTLPPSRDELTKNQVSLTCLVKGFYPSDIAVLWTQFFALENNYKTTPPVLDSDGSFFLYSKLTVDKSRWQQGNIFACNVIHEALHNHYTFKVPQLSPGK
notes: Fc part only
As for B7, the binding result with human CD98hc is given as “no binding”.

B8: LLB2-27 (Fc fusion)
chain: APELLGGPSVFLFPPKPKDTLMISRTPEVTCVVVDVSHEDPEVKFNWYVDGVEVHNAKTKPREEQYNSTYRVVSVLTVLHQDWLNGKEYKCKVSNKALPAPIEKTISKAKGQPREPQVYTLPPSRDELTKNQVSLTCLVKGFYPSDIAVLWMNHFTLENNYKTTPPVLDSDGSFFLYSKLTVDKSRWQQGNIFACNVMHEALHNHYTFKPLPLSPGK
notes: Fc part only
For B8, the binding result in the test with human CD98hc is “no binding”.

B9: LLS2.33.3 (Fc fusion)
chain: APELLGGPSVFLFPPKPKDTLMISRTPEVTCVVVDVSHEDPEVKFNWYVDGVEVHNAKTKPREEQYNSTYRVVSVLTVLHQDWLNGKEYKCKVSNKALPAPIEKTISKAKGQPREPQVYTLPPSRDELTKNQVSLTCLVKGFYPSDIAVEWSSQYELENNYKTTPPVLDSDGSFFLYSKLTVDKSRWQQGNMFACNVWHEALHNHYTFKNLSLSPGK
notes: Fc part only; also called LLB2.33.3
As for B9, binding with human CD98hc was characterised by a dissociation constant (Kd) of 5400 nM. In other words, the single-digit micromolar range.

B10: LLB2-32 (Fc fusion)
chain: APELLGGPSVFLFPPKPKDTLMISRTPEVTCVVVDVSHEDPEVKFNWYVDGVEVHNAKTKPREEQYNSTYRVVSVLTVLHQDWLNGKEYKCKVSNKALPAPIEKTISKAKGQPREPQVYTLPPSRDELTKNQVSLTCLVKGFYPSDIAVLWLDFFSLENNYKTTPPVLDSDGSFFLYSKLTVDKSRWQQGNIFACNVFHEALHNHYTFKVLALSPGK
notes: Fc part only
In the case of B10, the binding result in the test with human CD98hc is reported as “no binding”.

B11: LLB2-19 (Fc fusion)
chain: APELLGGPSVFLFPPKPKDTLMISRTPEVTCVVVDVSHEDPEVKFNWYVDGVEVHNAKTKPREEQYNSTYRVVSVLTVLHQDWLNGKEYKCKVSNKALPAPIEKTISKAKGQPREPQVYTLPPSRDELTKNQVSLTCLVKGFYPSDIVVLWNSRFSLEANVKTTPPVLDSDGSFFLYSKLTVDKSRWQQGQIFACNVLHEALHNHVTFKNLVLSPGK
notes: Fc part only
In turn, B11 returned a Kd in the test with human CD98hc of 9200 nM.

B12: LLB2-8 (Fc fusion)
chain: APELLGGPSVFLFPPKPKDTLMISRTPEVTCVVVDVSHEDPEVKFNWYVDGVEVHNAKTKPREEQYNSTYRVVSVLTVLHQDWLNGKEYKCKVSNKALPAPIEKTISKAKGQPREPQVYTLPPSRDELTKNQVSLTCLVKGFYPSDIAVLWNSRFELENNYKTTPPVLDSDGSFFLYSKLTVDKSRWQQGNIFACNVLHEALHNHYTFKNLSLSPGK
notes: Fc part only
For the molecule B12, the Kd in the test with human CD98hc was 790 nM; with cyno CD98hc, 3200 nM.

B13: LLB2-29 (Fc fusion)
chain: APELLGGPSVFLFPPKPKDTLMISRTPEVTCVVVDVSHEDPEVKFNWYVDGVEVHNAKTKPREEQYNSTYRVVSVLTVLHQDWLNGKEYKCKVSNKALPAPIEKTISKAKGQPREPQVYTLPPSRDELTKNQVSLTCLVKGFYPSDIAVLWYDLFVLENNYKTTPPVLDSDGSFFLYSKLTVDKSRWQQGNIFACNVLHEALHNHYTFKEPFLSPGK
notes: Fc part only
Consider B13, for which the binding result with human CD98hc is “no binding”.

B14: LLB2-4 (Fc fusion)
chain: APELLGGPSVFLFPPKPKDTLMISRTPEVTCVVVDVSHEDPEVKFNWYVDGVEVHNAKTKPREEQYNSTYRVVSVLTVLHQDWLNGKEYKCKVSNKALPAPIEKTISKAKGQPREPQVYTLPPSRDELTKNQVSLTCLVKGFYPSDIAVLWSSRFSLENNYKTTPPVLDSDGSFFLYSKLTVDKSRWQQGNIFACNVLHEALHNHYTFKNLSLSPGK
notes: Fc part only
With B14, the Kd with human CD98hc was determined as 1700 nM.

B15: LLB2-5 (Fc fusion)
chain: APELLGGPSVFLFPPKPKDTLMISRTPEVTCVVVDVSHEDPEVKFNWYVDGVEVHNAKTKPREEQYNSTYRVVSVLTVLHQDWLNGKEYKCKVSNKALPAPIEKTISKAKGQPREPQVYTLPPSRDELTKNQVSLTCLVKGFYPSDIAVLWNSKFSLENNYKTTPPVLDSDGSFFLYSKLTVDKSRWQQGNIFACNVLHEALHNHYTFKNLSLSPGK
notes: Fc part only
B15 showed a Kd in the test with human CD98hc of 1900 nM.
